Results as given in US20220406376A1 (MacroGenics, published 2022).
Residue numbers refer to the chain shown, from its start.

T1: 5T4 on the surface of target cells (JIMT-1, SKOV-3) (UniProt Q13641 32-420, limits assumed)
T1 construct: whole, on cells
T1 sequence (looked up): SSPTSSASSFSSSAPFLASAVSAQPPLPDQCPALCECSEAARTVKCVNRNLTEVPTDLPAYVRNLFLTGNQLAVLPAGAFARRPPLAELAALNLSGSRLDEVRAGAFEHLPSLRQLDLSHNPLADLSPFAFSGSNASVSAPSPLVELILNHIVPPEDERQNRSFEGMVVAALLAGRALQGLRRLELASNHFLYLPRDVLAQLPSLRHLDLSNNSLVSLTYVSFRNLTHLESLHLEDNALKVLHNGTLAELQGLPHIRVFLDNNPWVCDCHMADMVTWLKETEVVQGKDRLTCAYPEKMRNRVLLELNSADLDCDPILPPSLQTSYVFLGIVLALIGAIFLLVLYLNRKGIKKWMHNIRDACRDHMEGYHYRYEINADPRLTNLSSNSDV

B1: chCD137 MAB-3 (antibody, V domains shown)
VH: QVQLQQPGAELVRPGASVKLSCKASGYTFTSYWINWVKQRPGQGLEWIGNIYPSDSYTNYNQKFKDKATLTVDKSSSTAYMQLSSPTSEDSAVYYCTRDYGSSYSFDYWGQGTTLTVSS
VL: DIQMTQTTSSLSASLGDRVTISCRPSQDISNYLNWYQQKPDGTVKLLIYYTSRLRSGVPSRFSGSGSGTDYSLTISNLEQEDIATYFCQQGDTLPYTFGGGTKLEIK
B2: chCD137 MAB-4 (antibody, V domains shown)
VH: QVQLQQPGAELVRPGASVKLSCKASGYTFTSYWINWVKQRPGQGLEWIGNIYPSDSYTNYDQKFKDKATLTVDKSSSTAYMQLSSPTSEDSAVYYCTKSGEYGKIGYYAMDYWGQGTSVTVSS
VL: B1 VL with P25A, R55H, D92N
B3: TRIDENT-1 (bispecific antibody, human IgG1, kappa, L234A L235A)
chain 1: DIQMTQSPSSLSASVGDRVTITCRPSQDISNYLNWYQQKPDKTVKLLIYYTSRLRSGVPSRFSGSGSGTDFTFTISSLQPEDIATYFCQQGDTLPYTFGQGTKLEIKGGGSGGGGQVQLVQSGAEVKKPGASVKVSCKASGYTFTSYWINWVKQAPGQGLEWIGNIYPSDSYTNYNQKFKDKATITADKSTSTAYMELSSLRSEDTAVYYCTRDYGSAYSMSTWGQGTTVTVSSASTKGEVAACEKEVAALEKEVAALEKEVAALEKGGGDKTHTCPPCPAPEAAGGPSVFLFPPKPKDTLMISRTPEVTCVVVDVSHEDPEVKFNWYVDGVEVHNAKTKPREEQYNSTYRVVSVLTVLHQDWLNGKEYKCKVSNKALPAPIEKTISKAKGQPREPQVYTLPPSREEMTKNQVSLWCLVKGFYPSDIAVEWESNGQPENNYKTTPPVLDSDGSFFLYSKLTVDKSRWQQGNVFSCSVMHEALHNHYTQKSLSLSPGK
chain 2: DIQMTQSPSSLSASVGDRVTITCRPSQDISNYLNWYQQKPDKTVKLLIYYTSRLRSGVPSRFSGSGSGTDFTFTISSLQPEDIATYFCQQGDTLPYTFGQGTKLEIKGGGSGGGGQVQLVQSGAEVKKPGASVKVSCKASGYTFTSYWINWVKQAPGQGLEWIGNIYPSDSYTNYNQKFKDKATITADKSTSTAYMELSSLRSEDTAVYYCTRDYGSAYSMSTWGQGTTVTVSSASTKGKVAACKEKVAALKEKVAALKEKVAALKE
heavy: QVTLRESGPALVKPTQTLTLTCTFSGFSLSTSGMSVGWIRQPPGKALEWLADIWWDDKKDYNPSLKSRLTISKDTSKNQVVLKVTNMDPADTATYYCARSMITNWYFDVWGAGTTVTVSSASTKGPSVFPLAPSSKSTSGGTAALGCLVKDYFPEPVTVSWNSGALTSGVHTFPAVLQSSGLYSLSSVVTVPSSSLGTQTYICNVNHKPSNTKVDKRVEPKSCDKTHTCPPCPAPEAAGGPSVFLFPPKPKDTLMISRTPEVTCVVVDVSHEDPEVKFNWYVDGVEVHNAKTKPREEQYNSTYRVVSVLTVLHQDWLNGKEYKCKVSNKALPAPIEKTISKAKGQPREPQVYTLPPSREEMTKNQVSLSCAVKGFYPSDIAVEWESNGQPENNYKTTPPVLDSDGSFFLVSKLTVDKSRWQQGNVFSCSVMHEALHNRYTQKSLSLSPGK
light: DIQMTQSPSTLSASVGDRVTITCRASQSVGYMHWYQQKPGKAPKLLIYDTSKLASGVPSRFSGSGSGTEFTLTISSLQPDDFATYYCFQGSGYPFTFGGGTKLEIKRTVAAPSVFIFPPSDEQLKSGTASVVCLLNNFYPREAKVQWKVDNALQSGNSQESVTEQDSKDSTYSLSSTLTLSKADYEKHKVYACEVTHQGLSSPVTKSFNRGEC
notes: also called CD137×CD137×RSV control molecule; CD137×RSV control molecule
B4: TRIDENT-4 (bispecific antibody, human IgG1, kappa, L234A L235A)
chain 1: B3 chain 1 with R24Q, P25A, S52G, L54A, K153R
chain 2: B3 chain 2 with R24Q, P25A, S52G, L54A, K153R
heavy: B3 heavy
light: B3 light
B5: CD137 MAB-1 (antibody, V domains shown)
VH: QVQLQQWGAGLLKPSETLSLTCAVYGGSFSGYYWSWIRQSPEKGLEWIGEINHGGYVTYNPSLESRVTISVDTSKNQFSLKLSSVTAADTAVYYCARDYGPGNYDWYFDLWGRGTLVTVSS
VL: EIVLTQSPATLSLSPGERATLSCRASQSVSSYLAWYQQKPGQAPRLLIYDASNRATGIPARFSGSGSGTDFTLTISSLEPEDFAVYYCQQRSNWPPALTFGGGTKVEIK
notes: also called urelumab; BMS-663513
B6: chCD137 MAB-5 (antibody, V domains shown)
VH: QVQLKESGPGLVAPSQSLSITCTVSGFSLTSYDISWIRQPPGKGLEWLGVVWTGGGTNYNSAFMSRLSISKDNSKSQVFLKMNSLQTDDTAIYYCERVDYWGQGTSVTVSS
VL: DVVMTQTPLSLPVSLGDQASISCRSSQSLVHSNGNTYLHWYLQKPGQSPKLLIYKVSNRFSGVPDRFSGSGSGTDFTLKISRVEAEDLGVYFCSQSTHVPWTFGGGTKLEIK

Columns and labels:
[1] = target: T2, CD137 on the surface of cells (activated human T cells; engineered CHO cells) (human, UniProt Q07011 24-255); assay: flow cytometry on activated pan T cells gated CD8+, anti-hFc APC MFI
T2 construct: whole, on cells; also called human CD137; cell surface expressed CD137
Description: Three antibodies were selected for further study. For such evaluations, purified pan T-cells (see above) were stimulated with anti-CD3/CD28 beads (cells:beads=1:1) for 72 hours in the presence of IL-2 (100 U/mL). 100 μL of activated T cells (1.0×10⁶ cells/mL) and 100 μL of serially diluted (5- or 10-fold dilutions) test article (antibody or bispecific diabody) was added to each well of microtiter assay plate(s), mixed and incubated at RT for 45 min. The cells were washed with FACS Buffer and secondary antibody (anti-human-Fc region-APC) was then added to each well; mixed and incubated at RT for 30 min. Cells were then washed FACS Buffer and T cell surface marker antibodies (anti-CD4 labeled with V510, and anti-CD8 labeled with FITC) were then added to each well; mixed and incubated at RT for 30 min. Cells were washed and resuspended in 100 μL FACS Buffer and analyzed by flow cytometry (BD LSR Fortessa or FACSCanto 11) for cell event collection. Data analysis were performed via FloJo v10.
Chimeric antibodies having human IgG1 Fc regions and murine VH/VL domains were generated (designated: chCD137 MAB-1, chCD137 MAB-2, chCD137 MAB-3, chCD137 MAB-4 and chCD137 MAB-5, respectively), and were tested for their ability to bind to activated CD8⁺ T cells.

[2] = target: T3, extracellular portion of human CD137 fused to a histidine-containing peptide (human, UniProt Q07011 24-186); assay: SPR (BIACORE); antibody captured on anti-human Fc; huCD137 25 and 100 nM; 1:1 Langmuir
T3 construct: extracellular domain; also called huCD137; His-tagged soluble human CD137
Description: Thus, an extracellular portion of human CD137 fused to a histidine-containing peptide (“huCD137”) was passed over a surface coated with immobilized antibody. Briefly, each test molecule was captured onto an F(ab)₂ goat-anti-human Fc-coated surface and then incubated in the presence of different concentrations (25 nM and 100 nM) of huCD137. The kinetics of binding were determined via BIACORE® analysis binding (normalized 1:1 Langmuir binding model).

[3] = target: T2, CD137 on the surface of cells …; assay: flow cytometry on activated CD8+ T cells (donor D59788, CD8 FITC), anti-hFc APC MFI
[4] = target: T4, HER2/neu on the surface of target cells (N87, JIMT-1, MCF-7, MDA-MB231) (UniProt P04626 23-1255, limits assumed); assay: flow cytometry on N87 cells, anti-hFc APC MFI
T4 construct: whole, on cells

[5] = target: T1, 5T4 on the surface of target cells …; assay: flow cytometry on JIMT-1 (5T4 hi) cells, anti-hFc APC MFI
[6] = target: T2, CD137 on the surface of cells …; assay: flow cytometry on activated pan T cells (donor D46433, CD8 PE), anti-hFc APC MFI
[7] = target: T2, CD137 on the surface of cells …; assay: as above; remark: listed apart in the source

T2 sequence (Q07011 24-255, change not shown): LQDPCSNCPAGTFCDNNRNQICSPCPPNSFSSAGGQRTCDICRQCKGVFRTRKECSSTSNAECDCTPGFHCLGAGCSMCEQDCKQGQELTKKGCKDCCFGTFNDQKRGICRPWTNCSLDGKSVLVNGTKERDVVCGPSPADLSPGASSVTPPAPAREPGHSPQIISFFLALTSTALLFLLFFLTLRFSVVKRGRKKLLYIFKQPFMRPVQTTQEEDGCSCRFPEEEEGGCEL

Binder	EC50 (read off the curve) [1] [ng/mL]	Kd [2] [nM]	koff [2] [s⁻¹]	kon [2] [M⁻¹ s⁻¹]	EC50 (read off the curve) [3] [ng/mL]	binding result [5]	also measured
B1	~2	23	0.02	890000			
B2	~20	6.1	0.00092	150000			
B3					~7	no binding (tested: 10 ug/mL)	binding result [4]: no binding (tested: about 60 nM (last point)); EC50 (read off the curve) [6]: ~0.03 nM; EC50 (read off the curve) [7]: ~0.03 nM
B4					~7	no binding (tested: 10 ug/mL)	
B5	~5						
B6	~100						
